Assay results as given in the supplement of paper PMC9112550, “Optimization of the antimicrobial peptide Bac7 by deep mutational scanning” (BMC Biology, 2022).

Tested on: Escherichia coli TOP10
Experiment: shrunken log2 fold change of peptide-encoding DNA abundance (4.5 h post-induction vs induction); higher = less antimicrobial activity (less host growth inhibition)
Settings: time post-induction: 4.5 h; library: site-saturation at positions 5, 18, 19, 20
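Further: peptides expressed intracellularly from a pBAD plasmid library in pooled LB shake-flask culture, induced with 0.3% L-arabinose, DNA abundance read by NGS, three biological replicates, DESeq2 with apeglm shrinkage.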

Sequence | shrunken log2 fold change
RRIRPRPPRLPRPRPRPSCIPRP | -0.749
RRIRSRPPRLPRPRPRPAPHPRP | 0.276
RRIRQRPPRLPRPRPRPPNFPRP | -0.0994
RRIRRRPPRLPRPRPRPQIDPRP | 0.332
RRIRVRPPRLPRPRPRPKMFPRP | -0.056
RRIRMRPPRLPRPRPRPRQKPRP | 0.183
RRIRARPPRLPRPRPRPKCGPRP | 0.432
RRIRYRPPRLPRPRPRPNHSPRP | -0.498
RRIRCRPPRLPRPRPRPLMTPRP | -0.0133
RRIRARPPRLPRPRPRPVITPRP | -0.021
RRIRQRPPRLPRPRPRPLGDPRP | 0.0938
RRIRQRPPRLPRPRPRPDYNPRP | -0.161
RRIRKRPPRLPRPRPRPVMYPRP | -0.144
RRIRNRPPRLPRPRPRPVADPRP | 0.217
RRIRARPPRLPRPRPRPCAEPRP | 0.977
RRIRYRPPRLPRPRPRPKSHPRP | 0.49
RRIRLRPPRLPRPRPRPSDWPRP | -0.106
RRIRFRPPRLPRPRPRPFLCPRP | -0.313
RRIRTRPPRLPRPRPRPHKNPRP | -0.415
RRIRERPPRLPRPRPRPKLEPRP | -0.0117
RRIRLRPPRLPRPRPRPQEDPRP | -0.0336
RRIRWRPPRLPRPRPRPTKCPRP | -0.121
RRIRYRPPRLPRPRPRPRMRPRP | 0.667
RRIRRRPPRLPRPRPRPVGRPRP | 0.472
RRIRYRPPRLPRPRPRPYKPPRP | -0.0475

Sequence | shrunken log2 fold change
RRIRFRPPRLPRPRPRPNCLPRP | -0.0273
RRIRKRPPRLPRPRPRPHNVPRP | -0.097
RRIRARPPRLPRPRPRPLSPPRP | 0.0788
RRIRERPPRLPRPRPRPNCYPRP | -0.342
RRIRVRPPRLPRPRPRPFLSPRP | -0.567
RRIRHRPPRLPRPRPRPADYPRP | -0.291
RRIRHRPPRLPRPRPRPFHFPRP | -0.403
RRIRMRPPRLPRPRPRPWCIPRP | -0.315
RRIRARPPRLPRPRPRPIIVPRP | -0.226
RRIRFRPPRLPRPRPRPVMIPRP | 0.122
RRIRTRPPRLPRPRPRPMNKPRP | -0.373
RRIRTRPPRLPRPRPRPMQTPRP | 0.0276
RRIRNRPPRLPRPRPRPSMWPRP | -0.0524
RRIRHRPPRLPRPRPRPVYCPRP | -0.49
RRIRWRPPRLPRPRPRPMTHPRP | -0.0884
RRIRGRPPRLPRPRPRPNDYPRP | -0.0119
RRIRFRPPRLPRPRPRPHVGPRP | -0.224
RRIRRRPPRLPRPRPRPLKCPRP | 0.0734
RRIRMRPPRLPRPRPRPSQYPRP | -0.191
RRIRHRPPRLPRPRPRPNHEPRP | -0.493
RRIRSRPPRLPRPRPRPQYLPRP | -0.683
RRIRPRPPRLPRPRPRPDATPRP | 0.625
RRIRCRPPRLPRPRPRPYSPPRP | -1.13
RRIRPRPPRLPRPRPRPETPPRP | 0.152
RRIRRRPPRLPRPRPRPGWEPRP | 0.393

Sequence | shrunken log2 fold change
RRIRGRPPRLPRPRPRPYMDPRP | -0.0735
RRIRDRPPRLPRPRPRPAWRPRP | 0.812
RRIRVRPPRLPRPRPRPVLSPRP | -0.11
RRIRMRPPRLPRPRPRPEICPRP | 0.00534
RRIRCRPPRLPRPRPRPMWSPRP | -0.147
RRIRQRPPRLPRPRPRPLSVPRP | -0.539
RRIRNRPPRLPRPRPRPESYPRP | -0.0446
RRIRLRPPRLPRPRPRPYPFPRP | -0.137
RRIRSRPPRLPRPRPRPQMAPRP | 0.0615
RRIRNRPPRLPRPRPRPYVWPRP | -0.135
RRIRKRPPRLPRPRPRPAPRPRP | 1.26
RRIRMRPPRLPRPRPRPIEFPRP | 0.103
RRIRLRPPRLPRPRPRPVDDPRP | -0.219
RRIRHRPPRLPRPRPRPMCFPRP | -0.574
RRIRVRPPRLPRPRPRPSDSPRP | -0.4
RRIRLRPPRLPRPRPRPRRFPRP | 0.142
RRIRLRPPRLPRPRPRPIFTPRP | -0.206
RRIRRRPPRLPRPRPRPDRAPRP | 0.322
RRIRVRPPRLPRPRPRPSWAPRP | 0.0598
RRIRCRPPRLPRPRPRPLLIPRP | -0.4
RRIRARPPRLPRPRPRPTNKPRP | -0.0139
RRIRRRPPRLPRPRPRPKIEPRP | 0.0387
RRIRGRPPRLPRPRPRPQFAPRP | 0.273
RRIRNRPPRLPRPRPRPWKLPRP | -0.0134
RRIRDRPPRLPRPRPRPTKYPRP | -0.286
